According to patent US20230340151A1 (Pfizer, published 2023):

Legend:
Experiment in all cases: flow cytometry on cells displaying the construct
[1] = target: T1, CID1878 (human-chicken GUCY2c chimera) (human/chicken)
T1 chain: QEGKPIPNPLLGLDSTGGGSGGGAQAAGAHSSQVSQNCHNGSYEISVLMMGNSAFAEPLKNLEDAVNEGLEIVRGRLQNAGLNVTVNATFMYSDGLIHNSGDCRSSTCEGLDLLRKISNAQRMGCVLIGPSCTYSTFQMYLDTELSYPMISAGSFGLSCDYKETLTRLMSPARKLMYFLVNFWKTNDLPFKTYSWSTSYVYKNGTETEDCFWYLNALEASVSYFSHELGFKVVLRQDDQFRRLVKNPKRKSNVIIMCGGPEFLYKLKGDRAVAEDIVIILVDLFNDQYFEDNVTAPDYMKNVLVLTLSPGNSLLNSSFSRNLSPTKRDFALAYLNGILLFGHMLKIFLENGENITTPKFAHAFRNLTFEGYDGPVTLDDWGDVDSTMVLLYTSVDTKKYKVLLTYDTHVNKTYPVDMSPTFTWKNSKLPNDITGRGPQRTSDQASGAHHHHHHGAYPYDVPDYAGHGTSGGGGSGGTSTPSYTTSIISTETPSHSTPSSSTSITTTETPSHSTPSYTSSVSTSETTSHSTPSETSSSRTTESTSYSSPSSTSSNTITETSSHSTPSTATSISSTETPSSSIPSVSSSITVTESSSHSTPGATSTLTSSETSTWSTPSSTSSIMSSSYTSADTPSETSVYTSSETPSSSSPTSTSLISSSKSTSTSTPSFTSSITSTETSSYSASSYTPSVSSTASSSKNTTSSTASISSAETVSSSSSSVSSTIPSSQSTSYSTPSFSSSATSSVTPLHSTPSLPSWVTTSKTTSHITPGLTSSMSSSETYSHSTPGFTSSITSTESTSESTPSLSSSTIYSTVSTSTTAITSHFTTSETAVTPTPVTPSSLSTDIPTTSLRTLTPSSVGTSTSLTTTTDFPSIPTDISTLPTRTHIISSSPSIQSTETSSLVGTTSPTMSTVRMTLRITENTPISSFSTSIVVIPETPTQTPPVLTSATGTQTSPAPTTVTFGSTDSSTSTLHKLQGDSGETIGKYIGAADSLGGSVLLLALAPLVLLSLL

[2] = target: CID1948 (human GUCY2c point mutant) (human)
[3] = target: T2, CID1940 (reverse chimera, chicken GUCY2c with human residues) (chicken/human)
T2 chain: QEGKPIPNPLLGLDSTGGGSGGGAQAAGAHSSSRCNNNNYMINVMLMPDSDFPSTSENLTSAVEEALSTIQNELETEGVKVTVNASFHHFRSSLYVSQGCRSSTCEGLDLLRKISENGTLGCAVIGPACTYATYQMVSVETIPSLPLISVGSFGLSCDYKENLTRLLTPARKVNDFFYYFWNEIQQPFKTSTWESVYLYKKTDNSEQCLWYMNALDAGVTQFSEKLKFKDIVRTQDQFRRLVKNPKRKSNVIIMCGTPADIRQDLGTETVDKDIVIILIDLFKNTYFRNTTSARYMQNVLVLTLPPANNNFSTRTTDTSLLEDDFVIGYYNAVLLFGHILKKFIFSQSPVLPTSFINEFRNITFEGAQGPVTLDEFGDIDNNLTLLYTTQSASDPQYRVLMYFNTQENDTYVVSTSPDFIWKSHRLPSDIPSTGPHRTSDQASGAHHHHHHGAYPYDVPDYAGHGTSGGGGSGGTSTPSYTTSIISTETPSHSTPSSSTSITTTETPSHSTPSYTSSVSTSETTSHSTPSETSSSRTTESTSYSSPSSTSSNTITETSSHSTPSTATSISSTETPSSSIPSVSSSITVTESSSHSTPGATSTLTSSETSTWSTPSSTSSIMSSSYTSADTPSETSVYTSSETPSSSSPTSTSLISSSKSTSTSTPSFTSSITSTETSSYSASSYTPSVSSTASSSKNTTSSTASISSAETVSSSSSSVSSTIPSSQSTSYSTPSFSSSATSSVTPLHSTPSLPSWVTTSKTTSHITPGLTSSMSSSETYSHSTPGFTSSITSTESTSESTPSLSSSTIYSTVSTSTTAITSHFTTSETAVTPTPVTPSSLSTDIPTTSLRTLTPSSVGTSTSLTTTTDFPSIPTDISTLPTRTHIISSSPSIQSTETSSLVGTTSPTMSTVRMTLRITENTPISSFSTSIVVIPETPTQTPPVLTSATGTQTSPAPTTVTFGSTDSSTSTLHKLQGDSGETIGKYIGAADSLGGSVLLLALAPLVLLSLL

[4] = target: CID1946 (human GUCY2c point mutant) (human)

Measured: binding result

B1: GUCY2C-1608 (bispecific antibody)
chain 1: DIQLTQSPSSLSASVGDRVTITCRASESVDYYGSSLLQWYQQKPGKAPKLLIYAASKLASGVPSRFSGSGSGTDFTLTISSLQPEDFATYYCQQTRKAYTFGQGTKLEIKGGGSGGGGEVQLVESGGGLVQPGGSLRLSCAASGFTFSDYYMTWVRQAPGKGLEWVAFIRNQARGYTSDHNPSVKGRFTISRDNAKNSLYLQMNSLRAEDTAVYYCARDRPSYYVLDYWGQGTTVTVSSGCPPCPAPEAAGAPSVFLFPPKPKDTLMISRTPEVTCVVVDVSHEDPEVKFNWYVDGVEVHNAKTKPREEQYNSTYRVVSVLTVLHQDWLNGKEYKCKVSNKALPAPIEKTISKAKGQPREPQVCTLPPSREEMTKNQVSLWCLVKGFYPSDIAVEWESNGQPENNYKTTPPVLDSDGSFFLYSKLTVDKSRWQQGNVFSCSVMHEALHNHYTQKSLSLSPG
chain 2: DIQMTQSPSSLSASVGDRVTITCTSSQSLFNVRSQKNYLAWYQQKPGKAPKLLIYWASTRESGVPSRFSGSGSGTDFTLTISSLQPEDFATYYCKQSYDLFTFGGGTKVEIKGGGGSGGGGEVQLVESGGGLVQPGGSLRLSCAASGFTFSSYWMHWVRQAPGKGLEWIGEIKPSNELTNVHEKFKDRFTISVDKAKNSAYLQMNSLRAEDTAVYYCTRTITTTEGYWFFDVWGQGTLVTVSSGCPPCPAPEAAGAPSVFLFPPKPKDTLMISRTPEVTCVVVDVSHEDPEVKFNWYVDGVEVHNAKTKPREEQYNSTYRVVSVLTVLHQDWLNGKEYKCKVSNKALPAPIEKTISKAKGQPREPQVYTLPPCREEMTKNQVSLSCAVKGFYPSDIAVEWESNGQPENNYKTTPPVLDSDGSFFLVSKLTVDKSRWQQGNVFSCSVMHEALHNHYTQKSLSLSPG
notes: also called GUCY2c CD3 bispecific
binds: all assays above
